According to patent publication US20260152567A1 (CSPC MEGALITH BIOPHARMACEUTICAL, published 2026):

T1: human CD73 on the cell surface (MDA-MB-231 and SKOV3 tumor cells) (human, UniProt P21589 27-549)
T1 construct: whole, on cells; also called cell surface CD73; CD73 on the surface of human tumor cells
T1 sequence (looked up): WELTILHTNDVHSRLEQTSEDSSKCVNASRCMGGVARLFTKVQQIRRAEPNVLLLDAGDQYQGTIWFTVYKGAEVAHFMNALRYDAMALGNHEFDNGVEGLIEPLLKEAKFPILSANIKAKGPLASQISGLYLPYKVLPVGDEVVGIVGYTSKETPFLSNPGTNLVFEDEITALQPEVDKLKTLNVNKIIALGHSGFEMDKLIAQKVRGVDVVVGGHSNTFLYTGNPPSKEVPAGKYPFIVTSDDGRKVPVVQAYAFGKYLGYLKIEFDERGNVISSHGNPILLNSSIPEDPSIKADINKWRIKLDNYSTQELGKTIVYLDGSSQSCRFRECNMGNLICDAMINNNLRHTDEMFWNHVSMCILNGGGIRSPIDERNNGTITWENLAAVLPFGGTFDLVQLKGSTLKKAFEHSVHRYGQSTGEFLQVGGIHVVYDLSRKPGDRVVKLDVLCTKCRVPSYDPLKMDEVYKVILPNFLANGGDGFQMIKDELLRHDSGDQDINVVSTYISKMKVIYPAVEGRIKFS

T2: recombinant human CD73 protein (human, UniProt P21589 27-547)
T2 construct: Bought soluble protein; The background says that CD73 forms a homodimer; also called soluble CD73; free CD73 protein
T2 sequence (looked up): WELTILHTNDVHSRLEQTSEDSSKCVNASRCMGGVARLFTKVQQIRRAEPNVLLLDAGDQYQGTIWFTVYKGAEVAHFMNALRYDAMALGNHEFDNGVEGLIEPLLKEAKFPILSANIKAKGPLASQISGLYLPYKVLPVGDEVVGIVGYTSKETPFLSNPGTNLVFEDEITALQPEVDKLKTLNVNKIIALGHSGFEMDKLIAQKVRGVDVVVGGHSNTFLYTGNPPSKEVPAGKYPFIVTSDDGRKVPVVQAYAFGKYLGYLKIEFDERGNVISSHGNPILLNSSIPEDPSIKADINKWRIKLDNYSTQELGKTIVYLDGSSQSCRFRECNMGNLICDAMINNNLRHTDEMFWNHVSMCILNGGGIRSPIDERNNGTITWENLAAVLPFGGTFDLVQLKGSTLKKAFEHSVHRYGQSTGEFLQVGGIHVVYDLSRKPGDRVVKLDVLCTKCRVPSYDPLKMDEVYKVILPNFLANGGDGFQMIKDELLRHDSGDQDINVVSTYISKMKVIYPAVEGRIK

T3: cynomolgus monkey full-length CD73 on CHO-K1 cells (cynomolgus monkey, UniProt A0A2K5V5U7 27-549)
T3 construct: whole, on cells; also called monkey CD73 protein expressed on cells; cynomolgus monkey CD73 on cell surface
T3 sequence: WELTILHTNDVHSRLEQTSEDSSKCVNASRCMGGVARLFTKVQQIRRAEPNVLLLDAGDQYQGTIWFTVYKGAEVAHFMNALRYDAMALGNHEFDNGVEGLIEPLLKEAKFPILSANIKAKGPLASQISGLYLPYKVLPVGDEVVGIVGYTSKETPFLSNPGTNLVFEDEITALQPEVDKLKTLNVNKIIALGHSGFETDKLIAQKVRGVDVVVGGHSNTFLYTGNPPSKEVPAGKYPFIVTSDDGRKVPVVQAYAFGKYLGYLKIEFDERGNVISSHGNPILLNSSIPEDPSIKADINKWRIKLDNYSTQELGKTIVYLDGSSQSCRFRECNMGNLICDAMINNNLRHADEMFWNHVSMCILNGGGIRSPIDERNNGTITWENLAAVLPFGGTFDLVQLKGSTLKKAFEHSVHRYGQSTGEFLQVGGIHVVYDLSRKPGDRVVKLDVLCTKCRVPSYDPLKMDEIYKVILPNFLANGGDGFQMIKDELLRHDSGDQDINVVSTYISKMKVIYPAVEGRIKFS


Columns and labels:
[1] = target: T1, human CD73 on the cell surface …; assay: flow cytometry on MDA-MB-231 cells
Protocol: In this example, the exemplary antibodies of the present application were compared with anti-CD73 antibodies described in other patent applications. Antibodies MEDI9447 and Hu101-28 (with CDR sequences from PCT patent applications WO 2016/075099 and WO 2018/137598, respectively) were cloned into eukaryotic expression vectors containing the hIgG1-kappa constant region. The binding ability of the humanized antibodies Hab7C3C2.5 and Hab1F2F9.15 to cell surface CD73 was assessed using tumor cell lines MDA-MB-231 and SKOV3 which endogenously express human CD73 on the cell surface. The cells were seeded in a 96-well plate at a density of 2×10⁶ cells/mL, with 100 μL per well. 4-fold gradient dilutions (0-100 nM) of the antibodies were added, and the mixture was incubated at 4° C. for 1 h. A goat anti-human secondary antibody was added, and the mixture was incubated at 4° C. in the dark for 50 min for labeling. The fluorescence intensity of the cells was then measured by a flow cytometer.

[2] = target: T2, recombinant human CD73 protein; assay: ELISA, plate coated with recombinant CD73 protein at 1 µg/mL
Protocol: The affinity of the humanized antibodies to the recombinant CD73 protein was determined using an ELISA method. A elisa plate was coated with the CD73 protein at a concentration of 1 μg/mL. 5-fold gradient dilutions (0-66.7 nM) of the test antibodies were added.

[3] = target: T3, cynomolgus monkey full-length CD73 on …; assay: flow cytometry on CHO-K1 cells expressing monkey full-length CD73
Protocol: In order to characterize the ability of the humanized antibodies prepared in the present application to recognize the cynomolgus monkey CD73 molecule on the cell membrane, CHO-K1 cells capable of stably expressing monkey full-length CD73 were constructed. The cells were seeded in a 96-well plate at a density of 2×10⁶ cells/mL, with 100 μL per well. The plate was washed three times with a PBS buffer, and the supernatant was discarded. The antibodies diluted in a gradient with a PBS buffer were added, and the mixture was incubated at 4° C. for 1 h. The cells were washed 3 times with a PBS buffer, followed by labeling with Alexa Fluor 488-labeled goat anti-human IgG antibody at 4° C. in the dark for 50 min. The cells were then washed 3 times with a PBS buffer, and the fluorescence intensity of the cells was read by a flow cytometer.
As shown in the results in FIG. 5 and Table 10, the prepared humanized antibodies could bind to the monkey CD73 protein expressed on cells in a dose-dependent manner.

Binder	EC50 [1] [nM]	EC50 [2] [nM]	EC50 [3] [nM]
Hab1F2F9.15 (antibody, human IgG1, kappa, L234A L235A, V domains shown, Humanized 1F2F9; also called Huab1F2F9.15; HuablF2F9.15) VH: QVQLVQSGAEVKKPGASVKVSCKASGYTFTSYWMHWVRQAPGQRLEWMGNINPSNGGTKYSQKFQGRVTITVDTSASTAYMELSSLRSEDTAVYYCARRDYGSPSYWGQGTTVTVSS VL: DIQMTQSPSSLSASVGDRVTITCKASQDINSYLTWFQQKPGKAPKSLIYRTNILLDGVPSRFSGSGSGTDYTLTISSLQPEDFATYYCLQYHEFPVTFGGGTKLEIKR	0.48	0.011	1.51
Hab7C3C2.5 (antibody, human IgG1, kappa, L234A L235A, V domains shown, Humanized 7C3C2; also called Hab7C3C.5) VH: QVQLVQSGAEVKKPGASVKVSCKASGYTFTSYDINWVRQATGQGLEWIGWIYPRDGFTKYNEKFKGRVTLTVNTSISTAYMELSSLRSEDTAVYYCARKEGYRGDWYFDVWGQGTTVTVSS VL: DIQMTQSPSSLSASVGDRVTITCRASGNVHNYLAWYQQKPGKAPKLLLYNAKTLASGVPSRFSGSGSGTDYTLTISSLQPEDFATYYCQHFWSTPWTFGGGTELEIKR	0.41	0.013	11.3
